The values below come from US20170296640A1 (IMMATICS BIOTECHNOLOGIES, published 2017).

No end group written: not given here.

The assay addresses T1, HLA-A*02:01 (peptide-receptive MHC class I monomer after UV cleavage of the UV-sensitive ligand) (human).
T1 construct: MHC monomers loaded by UV-ligand exchange and captured on streptavidin plates
Briefly: UV ligand-exchange ELISA; exchange yield grade (+ >=10%, ++ >=20%, +++ >=50%, ++++ >=75%). From the text:
Candidate peptides for T cell based therapies according to the present invention were further tested for their MHC binding capacity (affinity). The individual peptide-MHC complexes were produced by UV-ligand exchange, where a UV-sensitive peptide is cleaved upon UV-irradiation, and exchanged with the peptide of interest as analyzed. Only peptide candidates that can effectively bind and stabilize the peptide-receptive MHC molecules prevent dissociation of the MHC complexes. To determine the yield of the exchange reaction, an ELISA was performed based on the detection of the light chain (β2m) of stabilized MHC complexes. The assay was performed as generally described in Rodenko et al. (Rodenko et al., 2006).
96 well MAXISorp plates (NUNC) were coated over night with 2 ug/ml streptavidin in PBS at room temperature, washed 4× and blocked for 1 h at 37° C. in 2% BSA containing blocking buffer. Refolded HLA-A*02:01/MLA-001 monomers served as standards, covering the range of 15-500 ng/ml. Peptide-MHC monomers of the UV-exchange reaction were diluted 100 fold in blocking buffer. Samples were incubated for 1 h at 37° C., washed four times, incubated with 2 ug/ml HRP conjugated anti-β2m for 1 h at 37° C., washed again and detected with TMB solution that is stopped with […]. Absorption was measured at 450 nm. Candidate peptides that show a high exchange yield (preferably higher than 50%, most preferred higher than 75%) are generally preferred for a generation and production of antibodies or fragments thereof, and/or T cell receptors or fragments thereof, as they show sufficient avidity to the MHC molecules and prevent dissociation of the MHC complexes.
For orientation: An ELISA detects its analyte on a solid surface through an enzyme-linked reagent.
Take IVMGAIPSV [IVMGAIPSV (SEQ ID NO: 231)]: the peptide exchange yield fell in the range of 50 to 75%.

In the case of FLAVSLPLL [FLAVSLPLL (SEQ ID NO: 208)], the peptide exchange yield lay within 50 to 75%.

In the case of LLSEETPSA [LLSEETPSA (SEQ ID NO: 2)], the peptide exchange yield is 50 to 75%.

Take NLLEQFILL [NLLEQFILL (SEQ ID NO: 248)]: the peptide exchange yield fell in the range of 50 to 75%.

Molecule QLFEEEIEL [QLFEEEIEL (SEQ ID NO: 215)] gave a peptide exchange yield of 20 to 50%.

For the molecule YINEDEYEV [YINEDEYEV (SEQ ID NO: 213)], the peptide exchange yield is 20 to 50%.

With IIAEGIPEA [IIAEGIPEA (SEQ ID NO: 227)], the peptide exchange yield fell in the range of 20 to 50%.

As to YSDDDVPSV [YSDDDVPSV (SEQ ID NO: 253)], the peptide exchange yield is ≥ 75%.

On to GLVGLLEQA [GLVGLLEQA (SEQ ID NO: 207)], for which the peptide exchange yield is ≥ 75%.

Consider TLFYESPHL [TLFYESPHL (SEQ ID NO: 205)], for which the peptide exchange yield lay in the range of 50 to 75%.

For KVLEMETTV [KVLEMETTV (SEQ ID NO: 247)], the peptide exchange yield was in the range of 50 to 75%.

In the case of SLFDGFFLTA [SLFDGFFLTA (SEQ ID NO: 236)], the peptide exchange yield was ≥ 75%.

Turning to KVVSNLPAI [KVVSNLPAI (SEQ ID NO: 216)], the peptide exchange yield is 20 to 50%.

In turn, ALFKEAYSL [ALFKEAYSL (SEQ ID NO: 21)] displayed a peptide exchange yield of 50 to 75%.

As for AVLGFSFRL [AVLGFSFRL (SEQ ID NO: 24)], the peptide exchange yield is 50 to 75%.

As to YQYGAVVTL [YQYGAVVTL (SEQ ID NO: 238)], the peptide exchange yield is 50 to 75%.

AQFGAVLEV [AQFGAVLEV (SEQ ID NO: 217)] returned a peptide exchange yield of 50 to 75%.

Consider GMWNPNAPVFL [GMWNPNAPVFL (SEQ ID NO: 255)], for which the peptide exchange yield was ≥ 75%.

For VLYELFTYI [VLYELFTYI (SEQ ID NO: 251)], the peptide exchange yield lay in the range of 50 to 75%.

As for IMDDDSYGV [IMDDDSYGV (SEQ ID NO: 230)], the peptide exchange yield fell in the range of 20 to 50%.

NLQRTVVTV [NLQRTVVTV (SEQ ID NO: 234)]: the peptide exchange yield is 20 to 50%.

Molecule YLDRLIPQA [YLDRLIPQA (SEQ ID NO: 237)] had a peptide exchange yield of 50 to 75%.

Turning to ALLELENSV [ALLELENSV (SEQ ID NO: 219)], the peptide exchange yield fell in the range of 20 to 50%.

KLIQLPVVYV [KLIQLPVVYV (SEQ ID NO: 245)] yielded a peptide exchange yield of 50 to 75%.

In turn, SLDVYELFL [SLDVYELFL (SEQ ID NO: 235)] came in with a peptide exchange yield of 50 to 75%.

For the molecule FLQDIPDGLFL [FLQDIPDGLFL (SEQ ID NO: 223)], the peptide exchange yield was 20 to 50%.

With SAVSGQWEV [SAVSGQWEV (SEQ ID NO: 206)], the peptide exchange yield lay in the range of 20 to 50%.

With KLPVPLESV [KLPVPLESV (SEQ ID NO: 246)], the peptide exchange yield lay in the range of 50 to 75%.

Molecule GVIDPVPEV [GVIDPVPEV (SEQ ID NO: 226)] showed a peptide exchange yield of 20 to 50%.

FLIGQGAHV [FLIGQGAHV (SEQ ID NO: 212)]: the peptide exchange yield lay within 50 to 75%.

ALKKHLTSV [ALKKHLTSV (SEQ ID NO: 22)] had a peptide exchange yield of 50 to 75%.

Turning to FLLDTISGL [FLLDTISGL (SEQ ID NO: 209)], the peptide exchange yield lay in the range of 50 to 75%.

FLDTSNQHLL [FLDTSNQHLL (SEQ ID NO: 25)] returned a peptide exchange yield of 50 to 75%.

For the molecule VLLESLVEI [VLLESLVEI (SEQ ID NO: 249)], the peptide exchange yield is ≥ 75%.

FLGSFIDHV [FLGSFIDHV (SEQ ID NO: 26)] returned a peptide exchange yield of 50 to 75%.

For RLCDIVVNV [RLCDIVVNV (SEQ ID NO: 204)], the peptide exchange yield lay in the range of 20 to 50%.

With YLGDLIMAL [YLGDLIMAL (SEQ ID NO: 252)], the peptide exchange yield was in the range of 50 to 75%.

With FLFDGSMSL [FLFDGSMSL (SEQ ID NO: 214)], the peptide exchange yield was in the range of 50 to 75%.

In the case of GILDFXVFL (not fully specified) [GILDFZVFL (SEQ ID NO: 242)], the peptide exchange yield is ≥ 75%.

Molecule IIAEYLSYV [IIAEYLSYV (SEQ ID NO: 228)] displayed a peptide exchange yield of 20 to 50%.

FIPDFIPAV [FIPDFIPAV (SEQ ID NO: 241)] yielded a peptide exchange yield of 20 to 50%.

With ALVEDIINL [ALVEDIINL (SEQ ID NO: 23)], the peptide exchange yield was ≥ 75%.

VLTNVGAAL [VLTNVGAAL (SEQ ID NO: 250)] yielded a peptide exchange yield of 50 to 75%.

Molecule MLEVHIPSV [MLEVHIPSV (SEQ ID NO: 233)] had a peptide exchange yield of 50 to 75%.

ILDTIFHKV [ILDTIFHKV (SEQ ID NO: 203)] gave a peptide exchange yield of 50 to 75%.

For the molecule FLAPDNSLLLA [FLAPDNSLLLA (SEQ ID NO: 221)], the peptide exchange yield was ≥ 75%.

As to ALQETPPQV [ALQETPPQV (SEQ ID NO: 256)], the peptide exchange yield lay within 50 to 75%.

Molecule ALVPTPALFYL [ALVPTPALFYL (SEQ ID NO: 240)] yielded a peptide exchange yield of 50 to 75%.

For ALDQFLEGI [ALDQFLEGI (SEQ ID NO: 218)], the peptide exchange yield lay within 50 to 75%.

As for FLYSETWNI [FLYSETWNI (SEQ ID NO: 254)], the peptide exchange yield is ≥ 75%.

FLIETGTLL [FLIETGTLL (SEQ ID NO: 222)] had a peptide exchange yield of 50 to 75%.

With GLPDLDIYL [GLPDLDIYL (SEQ ID NO: 243)], the peptide exchange yield is ≥ 75%.

KVMEGTVAA [KVMEGTVAA (SEQ ID NO: 232)] displayed a peptide exchange yield of 20 to 50%.

As to FLAEQFEFL [FLAEQFEFL (SEQ ID NO: 210)], the peptide exchange yield is 50 to 75%.

As for FLAEAPTAL [FLAEAPTAL (SEQ ID NO: 220)], the peptide exchange yield fell in the range of 20 to 50%.

On to ILEPFLPAV [ILEPFLPAV (SEQ ID NO: 244)], for which the peptide exchange yield lay within 50 to 75%.

Take FLSPLLPLL [FLSPLLPLL (SEQ ID NO: 224)]: the peptide exchange yield was 20 to 50%.

In the case of FIDDLFAFV [FIDDLFAFV (SEQ ID NO: 211)], the peptide exchange yield is 50 to 75%.

On to ILSPWGAEV [ILSPWGAEV (SEQ ID NO: 229)], for which the peptide exchange yield is ≥ 75%.

Molecule VLIDDTVLL [VLIDDTVLL (SEQ ID NO: 239)] yielded a peptide exchange yield of 50 to 75%.
